{"source": "paper PMC5303823", "about": "“DEK-targeting DNA aptamers as therapeutics for inflammatory arthritis”", "molecular_target": "T1, DEK (recombinant, baculovirus) (UniProt P35659 1-375)", "T1 sequence": "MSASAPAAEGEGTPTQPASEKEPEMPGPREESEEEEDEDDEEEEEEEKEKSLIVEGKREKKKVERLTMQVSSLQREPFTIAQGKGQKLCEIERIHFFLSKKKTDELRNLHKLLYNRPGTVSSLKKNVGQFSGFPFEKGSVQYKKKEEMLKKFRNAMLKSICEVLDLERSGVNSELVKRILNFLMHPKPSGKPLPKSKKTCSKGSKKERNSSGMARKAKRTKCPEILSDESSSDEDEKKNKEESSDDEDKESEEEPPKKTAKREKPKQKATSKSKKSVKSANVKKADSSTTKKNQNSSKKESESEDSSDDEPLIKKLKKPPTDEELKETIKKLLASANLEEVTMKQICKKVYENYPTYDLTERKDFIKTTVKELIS", "test": "pull-down, biotinylated aptamer on magnetic beads, immunoblot; two DEK concentrations, overnight 4 C; Selection and dot blot: 20 mM Tris pH 7.6, 100 mM NaCl, 5 mM MgCl2 (selection at room temperature; dot blot with 100 ug/ml salmon sperm DNA); pull-down: overnight at 4 C, PBS washes", "details": "protein: recombinant; tags: His tag (SELEX resin); label: biotin (pull-down on magnetic beads)", "data": [{"binder": "GGGGTTAAATATTCCCACATTGCCTGCGCCAGTACAAATAG (ssDNA)", "note": "[DTA-64]", "values": [{"measurement": "binding result", "result": "binds"}]}]}
